# Reference: article PMC6509880
# Biological target: apo-CrHydA1 ([4Fe4S]-CrHydA1, Chlamydomonas reinhardtii [FeFe] hydrogenase HydA1 lacking the [2Fe] subsite) (Chlamydomonas reinhardtii)
substance,measurement,value
[2Fe]^adt-CaHydF (semi-synthetic HydF from Clostridium acetobutylicum loaded with [Fe2(adt)(CO)4(CN)2]^2-) (natural protein),"H2 evolution (methyl viologen assay, GC) of 0.04 uM apo-CrHydA1 after 60 min at 37 °C with 0.04-1.2 uM [2Fe]^adt-CaHydF; excess of HydF needed for complete activation",10 fold excess
